The data set addresses bovine albumin (BSA) (bovine, UniProt P02769 25-607). As to the kind of experiment: SPR. (Surface plasmon resonance follows binding to a sensor surface in real time, without labels.)

Chain of bovine albumin (BSA) (P02769 25-607): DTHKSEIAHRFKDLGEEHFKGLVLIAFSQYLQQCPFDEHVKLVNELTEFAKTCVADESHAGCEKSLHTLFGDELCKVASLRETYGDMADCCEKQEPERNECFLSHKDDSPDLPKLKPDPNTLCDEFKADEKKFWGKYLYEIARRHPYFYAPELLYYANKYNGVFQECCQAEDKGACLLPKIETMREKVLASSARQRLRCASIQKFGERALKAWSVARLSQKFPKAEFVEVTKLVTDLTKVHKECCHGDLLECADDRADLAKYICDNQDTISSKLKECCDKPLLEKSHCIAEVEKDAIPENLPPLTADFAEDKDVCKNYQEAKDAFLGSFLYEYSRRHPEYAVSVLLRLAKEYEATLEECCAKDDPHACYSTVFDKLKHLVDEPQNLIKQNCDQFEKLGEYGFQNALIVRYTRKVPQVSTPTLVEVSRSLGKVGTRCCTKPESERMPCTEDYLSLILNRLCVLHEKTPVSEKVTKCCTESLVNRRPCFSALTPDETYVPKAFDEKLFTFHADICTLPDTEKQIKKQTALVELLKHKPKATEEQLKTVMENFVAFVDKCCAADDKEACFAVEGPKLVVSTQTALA

B1: N58 aptamer (SARS-CoV-2-N58) (ssDNA)
DNA: GCTGGATGTCACCGGATTGTCGGACATCGGATTGTCTGAGTCATATGACACATCCAGC
Turning to B1, the binding result is listed as “no binding”.
